Reference: paper PMC5388505, “Interferon-inducible ribonuclease ISG20 inhibits hepatitis B virus replication through directly binding to the epsilon stem-loop structure of viral RNA”
Where a chain is given by its changes, count along the chain named.

Key:
[1] = molecular target: T1, ISG20 (wild type) (UniProt Q96AZ6 1-181); experiment: EMSA; no Mn2+; ISG20 EMSA: 20 mM HEPES, 100 mM KCl, 1 mM DTT, 0.5 mg/ml BSA, 10% glycerol, 0.05 ug/ul poly[dI-dC], 30 C 30 min, 100 ng RNA, pH not stated; Pol EMSA: 20 mM Tris pH 7.5, 2 mM MgCl2, 15 mM NaCl, 20 mM KCl, 4 mM DTT, yeast tRNA, 30 C 1 h; conditions: protein: recombinant; label: 5'-32P; hairpin
[2] = molecular target: T1, ISG20 (wild type); experiment: EMSA; no Mn2+; bottom 4 bp stated indispensable for binding; ISG20 EMSA: 20 mM HEPES, 100 mM KCl, 1 mM DTT, 0.5 mg/ml BSA, 10% glycerol, 0.05 ug/ul poly[dI-dC], 30 C 30 min, 100 ng RNA, pH not stated; Pol EMSA: 20 mM Tris pH 7.5, 2 mM MgCl2, 15 mM NaCl, 20 mM KCl, 4 mM DTT, yeast tRNA, 30 C 1 h; conditions: protein: recombinant; label: 5'-32P; hairpin
[3] = molecular target: ISG20 dExoIII (UniProt Q96AZ6 1-181, del147-157); experiment: EMSA; no Mn2+; binding completely lost; ISG20 EMSA: 20 mM HEPES, 100 mM KCl, 1 mM DTT, 0.5 mg/ml BSA, 10% glycerol, 0.05 ug/ul poly[dI-dC], 30 C 30 min, 100 ng RNA, pH not stated; Pol EMSA: 20 mM Tris pH 7.5, 2 mM MgCl2, 15 mM NaCl, 20 mM KCl, 4 mM DTT, yeast tRNA, 30 C 1 h; conditions: protein: recombinant; tags: 6xHis (pRSET A); label: 5'-32P; stem-loop with bulge and apical loop
[4] = molecular target: ISG20 D94G (UniProt Q96AZ6 1-181, D94G); experiment: EMSA; no Mn2+; complex with altered mobility; ISG20 EMSA: 20 mM HEPES, 100 mM KCl, 1 mM DTT, 0.5 mg/ml BSA, 10% glycerol, 0.05 ug/ul poly[dI-dC], 30 C 30 min, 100 ng RNA, pH not stated; Pol EMSA: 20 mM Tris pH 7.5, 2 mM MgCl2, 15 mM NaCl, 20 mM KCl, 4 mM DTT, yeast tRNA, 30 C 1 h; conditions: protein: recombinant; tags: 6xHis (pRSET A); label: 5'-32P; stem-loop with bulge and apical loop
[5] = molecular target: ISG20 dExoII (UniProt Q96AZ6 1-181, del86-101); experiment: EMSA; no Mn2+; binding not reduced, even increased vs wild type; ISG20 EMSA: 20 mM HEPES, 100 mM KCl, 1 mM DTT, 0.5 mg/ml BSA, 10% glycerol, 0.05 ug/ul poly[dI-dC], 30 C 30 min, 100 ng RNA, pH not stated; Pol EMSA: 20 mM Tris pH 7.5, 2 mM MgCl2, 15 mM NaCl, 20 mM KCl, 4 mM DTT, yeast tRNA, 30 C 1 h; conditions: protein: recombinant; tags: 6xHis (pRSET A); label: 5'-32P; stem-loop with bulge and apical loop
[6] = molecular target: ISG20 dExoI (UniProt Q96AZ6 1-181, del7-16); experiment: as above; conditions: protein: recombinant; tags: 6xHis (pRSET A); label: 5'-32P; stem-loop with bulge and apical loop
[7] = molecular target: T1, ISG20 (wild type); experiment: EMSA; no Mn2+; dose-dependent; supershift with anti-His; competed by 10-40x cold epsilon; ISG20 EMSA: 20 mM HEPES, 100 mM KCl, 1 mM DTT, 0.5 mg/ml BSA, 10% glycerol, 0.05 ug/ul poly[dI-dC], 30 C 30 min, 100 ng RNA, pH not stated; Pol EMSA: 20 mM Tris pH 7.5, 2 mM MgCl2, 15 mM NaCl, 20 mM KCl, 4 mM DTT, yeast tRNA, 30 C 1 h; conditions: protein: recombinant; label: 5'-32P; stem-loop with bulge and apical loop

B1: Lower stem + bulge (LS+B) (structured_RNA)
RNA: CUUGUUCAUGUCCUACUGUUCUGGGGCAUGGACAUC
**Q.** Does B1 bind [1]?
**A.** binds

B2: Lower stem + bulge mutant (LS+Bm) (structured_RNA)
RNA: B1 RNA with G18A, U19A, U20A, C21A
**Q.** Does B2 bind [1]?
**A.** binds

B3: Upper stem + loop (US+L) (structured_RNA)
RNA: UCAAGCCUCCAAGCUGUGCCUUGGGUGGCUUUG
**Q.** Does B3 bind [1]?
**A.** no binding

B4: Lower stem d4bp + bulge (LSd4+B) (structured_RNA)
RNA: CAUGUCCUACUGUUCUGGGGCAUG
**Q.** Does B4 bind [2]?
**A.** no binding

B5: HBV epsilon full length (FL) (structured_RNA)
RNA: CUUGUUCAUGUCCUACUGUUCAAGCCUCCAAGCUGUGCCUUGGGUGGCUUUGGGGCAUGGACAUC
**Q.** What does the source list for B5?
**A.** binding result [3]: no binding; binding result [4]: binds; binding result [5]: binds; binding result [6]: binds; binding result [7]: binds
